From patent publication US11351270B2, “Junctophilin-2 fragments and uses therefor” (University of Iowa Research Foundation, priority 2016, dated 2022)

What was measured:
JP2-KD cardiomyocytes = test: Confocal Ca2+ imaging in JP2-KD cardiomyocytes after adenoviral expression; format: cell-based, mouse; conditions: 1-Hz field stimulation
From the text: Specifically, conditional shJP2 mice (provided by Dr. Wehrens) (van Oort et al., 2011) were crossed with mice carrying the cardiac-specific α-myosin heavy chain promoter upstream of Cre (% MHC-Cre, also FVB-Tg(Myh6-cre)2182Mds/J, The Jackson Laboratory). The shJP2 mice were maintained on a C57BL/6 background for more than 10 generations. The αMHC-Cre mice were maintained on an FVB background. PCR was used to genotype the offspring. The near complete depletion of JP2 protein in JP2-KD (αMHC-Cre X shJP2) hearts has been reported recently (Chen et al., 2013). JP2-KD mice were sacrificed at 2 months of age for isolation and culture of ventricular cardiomyocytes as described below.
Genecarrior-1 (Epoch Lab) was used to transfect plasmids into HEK293T cells. Isolation and culture of cardiomyocytes were performed as described previously (Guo et al., 2012). […] Ca^2+ Imaging experiments were performed 40 hours after adenoviral infection.
Cells were loaded with Rhod-2AM at 37° C. for 20 minutes, followed by washing with Tyrode's solution at room temperature for 15 minutes before Ca^2+ imaging. Confocal images were acquired using a ×63, 1.3 numerical aperture oil immersion objective mounted on a Zeiss LSM 510 confocal microscope. Confocal line scanning was used to record Ca^2+ signals. Steady-state Ca^2+ transients were recorded in Tyrode's solution containing 1.8 mM Ca^2+ under field stimulation of 1 Hz. At least five steady-state transients for each cell were analyzed and averaged to represent Ca^2+ signals of the cell. Ca^2+ imaging data were analyzed by using a home-complied software, CaTeasy, which is coded in MATLAB 2013a (Mathworks). Briefly, the program normalizes Ca^2+ transient images on a column-by-column basis (512 columns/image). The characteristic parameters of normalized transients were detected automatically. The firing time of every scanning pixel was detected column by column on the basis of the maximum local variability of pixel intensity. The profile of the point-to-point firing time was indicated by a red line overlapping on the Ca^2+ image. Index of desynchronization, defined by the mean absolute deviation of firing time of each scanning pixel (with every 8 pixels binned), was used to evaluate the dyssynchrony of Ca^2+ transients. This automated software for calcium transient analysis is available upon request.

[1] = tested on: cultured adult murine cardiomyocytes; test: RT-qPCR in cultured cardiomyocytes; format: cell-based, mouse; conditions: compared with Ad-Empty infected cells
Procedure: RNA of cultured cardiomyocytes was extracted using RNAeasy (Qiagene). Myocardium RNA was extracted using Trizol. Total RNA was treated with DNASE-I to eliminate genomic DNA and then cleaned using RNA cleanup Kit (Qiagene).
Superscript II were used for Reverse Transcription of mRNA. A QUANT STUDIO 3 real-time PCR machine was used to run qPCR. The primers used in RT-PCR were: […]

RyR2 and Cav1.2 = test: Coimmunoprecipitation with E-C coupling channels; format: binding, mouse; conditions: anti-HA immunoprecipitation
From the text: FIGS. 5A-H. JP2 truncations are nonfunctional in regulating Ca^2+ transients. A) An antibody against the HA tag was used to reveal the localization of adenoviral expression of tagged full-length JP2 and truncations, as indicated, in adult wild-type cardiomyocytes. All the three version of JP2 can be localized in the striated pattern. B) Full-length JP2 and JP2(1-565) forms complexes with RyR2 and Cav1.2 In vivo. An antibody against HA was used for immunoprecipitation […]. The RyR2 and Cav1.2 that were pulled down were detected by Western blot analysis. […] IB, immunoblot. C) Adenovirus-mediated expression of full-length JP2, FLAG-JP2(1-565)-HA, and JP2(566-end)-HA in JP2-KD) cardiomyocytes. D) Representative steady-state Ca^2+ transients under 1-Hz field stimulation. The fluorescence intensity (F) of Ca^2+ imaging was normalized to the baseline (FO). The red lines overlapping on Ca^2+ imaging show the profile of the moment of Ca^2+ transient firing on the scanning line in a point-by-point way. A straighter line means better synchronization of the Ca^2+ transients. Note that expression of full-length JP2, but not JP2 truncations, improves the amplitude and synchronization of Ca^2+ transients. E-G) Summary of Ca^2+ transient amplitude, index of desynchronization (mean absolute deviation of firing time), and duration of 50% decay (T5) (n=68, 70, 70, and 52 for Ad-Empty, Ad-JP2, […], and Ad-JP2(566-end), respectively). Only full-length JP2 Improves the amplitude, synchronization, and decay of Ca^2+ transients. H) Summary of SR Ca^2+ content, which was assessed by caffeine-induced SR Ca^2+ release (n=17, 17, 17, and 12 for Ad-Empty, Ad-JP2, Ad-JP2(1-565), and Ad-JP2(566-end), respectively). **, p<0.01 versus indicated groups; N.S., not significant.
Cleavage at the primary calpain proteolysis site (Arg-565/Thr-566) splits apart the C-terminal SR-binding TM domain and N-terminal plasma membrane-binding MORN domains of JP2. […]

MEF2C = molecular target: T1, MEF2C (Homo sapiens, UniProt Q06413); test: Co-IP of Myc-tagged MEF2C and HA-tagged JP2NT in 293 cells; format: binding
T1 construct: expressed in transfected cells; host or cells: 293 cells
T1 sequence (Q06413 whole entry, species assumed): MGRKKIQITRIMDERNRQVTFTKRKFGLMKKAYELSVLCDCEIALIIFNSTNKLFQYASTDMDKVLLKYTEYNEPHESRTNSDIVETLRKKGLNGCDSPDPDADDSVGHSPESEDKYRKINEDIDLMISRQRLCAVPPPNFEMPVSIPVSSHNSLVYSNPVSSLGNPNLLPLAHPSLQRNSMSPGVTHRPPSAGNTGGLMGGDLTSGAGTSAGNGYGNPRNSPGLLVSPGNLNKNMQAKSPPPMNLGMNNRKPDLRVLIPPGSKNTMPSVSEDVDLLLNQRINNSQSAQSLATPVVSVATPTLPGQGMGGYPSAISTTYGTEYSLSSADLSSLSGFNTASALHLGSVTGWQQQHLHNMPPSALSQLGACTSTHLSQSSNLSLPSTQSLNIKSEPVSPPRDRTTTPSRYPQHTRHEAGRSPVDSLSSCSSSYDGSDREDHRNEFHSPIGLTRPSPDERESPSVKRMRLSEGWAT
From the text: (§1) The MEF2 family, master regulators of hypertrophic genes in cardiomyocytes, binds to the A/T enriched consensus sequence (C/TTA(A/T)4TA G/A), which shares the same core sequence with TATA box. Thus, it was hypothesized that JP2NT directly interacts with MEF2 binding sites.

[2] = tested on: MEF2C Response Element (MRE) from the desmin enhancer; test: Gel shift assay with MEF2 response element; format: binding; conditions: purified protein
From the text: FIGS. 12A-E. JP2NT represses MEF2-mediated transcription by competing for the MEF2 Response Element (MRE). A) Enrichment of MEF2 binding motifs in ChIP-seq dataset. B) Gel shift assay of JP2NT binding to a desmin promoter-derived DNA sequence containing a WT or mutated MRE in vitro. C) Co-immunoprecipitation of HA-tagged JP2NT binding to MEF2C or Histone H3. D) & E) MEF2 activity assays in 293T cells co-transfected with luciferase under the control of an MRE, MEF2C and WT JP2NT (D) or a mutant lacking the ARR (E, JP2NT^ΔARR). n≥3 independent batches of cells; in each batch of experiments, 3 replicates were performed for each transfection; **p<0.01 vs. Ad-Empty.
as §1

B1: JP2NT: shorter form of Junctophilin-2 including the first 565 amino acids of N-terminus of JP2 (protein, UniProt Q9BR39 1-565, looked up, fragment)
chain: MSGGRFDFDDGGAYCGGWEGGKAHGHGLCTGPKGQGEYSGSWNFGFEVAGVYTWPSGNTFEGYWSQGKRHGLGIETKGRWLYKGEWTHGFKGRYGIRQSSSSGAKYEGTWNNGLQDGYGTETYADGGTYQGQFTNGMRHGYGVRQSVPYGMAVVVRSPLRTSLSSLRSEHSNGTVAPDSPASPASDGPALPSPAIPRGGFALSLLANAEAAARAPKGGGLFQRGALLGKLRRAESRTSVGSQRSRVSFLKSDLSSGASDAASTASLGEAAEGADEAAPFEADIDATTTETYMGEWKNDKRSGFGVSERSSGLRYEGEWLDNLRHGYGCTTLPDGHREEGKYRHNVLVKDTKRRMLQLKSNKVRQKVEHSVEGAQRAAAIARQKAEIAASRTSHAKAKAEAAEQAALAANQESNIARTLARELAPDFYQPGPEYQKRRLLQEILENSESLLEPPDRGAGAAGLPQPPRESPQLHERETPRPEGGSPSPAGTPPQPKRPRPGVSKDGLLSPGAWNGEPSGEGSRSVTPSEGAGRRSPARPATERMAIEALQAPPAPSREPEVALYQG
modifications: GST or adenoviral forms
notes: shorter form of Junctophilin-2 including the first 565 amino acids of N-terminus of JP2
In the case of B1, the “restoration of Ca2+ transients” value (JP2-KD cardiomyocytes) is reported as “failed to restore”, the “cardiac hypertrophy markers ANP and BNP (mRNA)” value [1] is reported as “not altered” and the “mRNA levels of KLF4, KLF6, Myc, TGFβR1, NFKBIA, FOXO1, PI3KR1 et al” value [1] is reported as “significantly decreased”. For the same molecule, the “interaction with RyR2 and Cav1.2” value (RyR2 and Cav1.2) was “interact”, the “interaction with MEF2C” value (MEF2C) was “interaction” and the “interaction with MEF2C Response Element (MRE)” value [2] was “interacts”.
